From patent publication US20190177416A1 (NANOMAB TECHNOLOGY, published 2019)

B1: SEQ ID NO 19 (VHH)
VHH: QVQLQESGGGSVQTGGSLRLSCAASTSIYSNNYMAWFSQAPGKGREGVAAVYIGDGRPYYADSVKGRFTISLDSAKNTVYLQMNSLKPEDTAMYYCAAAPGPLSRNYWYTSANYDYWGQGTQVTVSS
notes: pMECS-expressed; also called VHH numbered 19
B2: SEQ ID NO 22 (VHH)
VHH: QVQLQESGGGSVQTGGSLRLSCAASTSIYSNNYMAWFSQAPRKGREGVAAVYIGDGRPYYADSVKGRFTISLDSAKNTVYLQMNSLKPEDTAMYYCAAAPGPLSHNYWYTSANYDYWGQGTQVTVSS
notes: pMECS-expressed; also called VHH numbered 22
B3: SEQ ID NO 37 (VHH)
VHH: QVQLQESGGGSVQTGGSLRLSCAASTSIYSINYMAWFRQAPGKGREGVAAVYIDDGRPYYADSVKGRFTISLDSAKNTVYLQMTSLKSEDTAMYYCAAAPGPLSRSYWYTSANYDYWGQGTQVTVSS
notes: pMECS-expressed; also called VHH numbered 37
B4: SEQ ID NO 30 (VHH)
VHH: QVQLQESGGGSVQTGGSLRLSCTASTSIYSNNYMAWFSQAPGKGREGVAAVYIDDGRPYYADSVKGRFTISLDSAKNTVYLQMNSLKPEDTAMYYCAAAPGPLSRNYWYTSANYDYWGQGTQVTVSS
notes: pMECS-expressed; also called VHH numbered 30
B5: SEQ ID NO 26 (VHH)
VHH: QVQLQESGGGSVQTGGSLRLSCAASTSIYNNNYMAWFSQAPGKEREGVAAVYIGDGRPYYADSVKGRFTISLDSAKNTVYLQMNSLKPEDTAMYYCAAAPGPLSRNYWYTSANYDYWGQGTQVTVSS
notes: pMECS-expressed; also called VHH numbered 26
B6: SEQ ID NO 25 (VHH)
VHH: QVQLQESGGGSVQTGGSLRLSCTASTSIYSNNYMAWFSQAPGKGREGVAAVYIGDGRPYYADSVKGRFTISLDSAKNTVYLQMNSLKPEDTAMYYCAAAPGPLSHNYWYTSANYDYWGQGTQVTVSS
notes: pMECS-expressed; also called VHH numbered 25
B7: SEQ ID NO 16 (VHH)
VHH: QVQLQESGGGSVQTGGSLRLSCAASPSIYSNNYMAWFSQAPGKGREGVAAVYIGDGRPYYADSVKGRFTISLDSAKNTVYLQMNSLKPEDTAMYYCAAAPGPLSRNYWYTSANYDYWGQGTQVTVSS
notes: pMECS-expressed; also called VHH numbered 16
B8: SEQ ID NO 28 (VHH)
VHH: QVQLQESGGGSVQTGGSLRLSCAASTSIYSNNYMAWFRQAPGKGREGVAAVYIDDGRPYYADSVKGRFTISLDSAKNTVYLQMNSLKPEDTAMYYCAAAPGPLSRHYWYTSANYDYWGPGTQVTVSS
notes: pMECS-expressed; also called VHH numbered 28
B9: SEQ ID NO 33 (VHH)
VHH: QVQLQESGGGSVQTGGSLRLSCACSTSIYSNNYMAWFSQAPGKGREGVAAVYIGDGRPYYADSVKGRFTISLDSAKNTMYLQMNSLKPEDTAMYYCAAAPGPLSQHYWYTSANYDYWGQGTQVTVSS
notes: pMECS-expressed; also called VHH numbered 33
B10: SEQ ID NO 32 (VHH)
VHH: QVQLQESGGGSVQTGGSLRLSCAASTSIYSINYMAWFSQAPGKGREGVAAVYIGDGRPYYADSVKGRFTISLDSAKNTVYLQMNSLKPEDTAMYYCAAAPGPLSQHYWYTSANYDYWGQGTQVTVSS
notes: pMECS-expressed; also called VHH numbered 32
B11: SEQ ID NO 21 (VHH)
VHH: QVQLQESGGGSVQTGGSLRLSCAASTSIYSLNYMAWFSQAPGKGREGVAAVYIGDGRPYYADSVKGRFTISLDSAKNTVYLQMNSLKSEDTAMYYCAAAPGPLSRHYWYTSANYDYWGQGTQVTVSS
notes: pMECS-expressed; also called VHH numbered 21
B12: SEQ ID NO 31 (VHH)
VHH: QVQLQESGGGSVQTGGSLRLSCAASTSIYSNNYMAWFRQAPGKGREGVAGVYIGDGRPYYADSVKGRFTISLDSAKNTVYLQMNSLKPEDTAMYYCAAAPGPLSHHYWYTSANYDYWGPGTQVTVSS
notes: pMECS-expressed; also called VHH numbered 31
B13: SEQ ID NO 35 (VHH)
VHH: QVQLQESGGGSVQTGGSLRLSCTASTSIYSNNYMAWFSQAPGKGREGVAAVYIDDGRPYYADSVKGRFTISLDSAKNTVYLQMNSLKPEDTAMYYCAAAPGPLSRNYWYTSANYDYWGQGTQVTVSS
notes: pMECS-expressed; also called VHH numbered 35
B14: SEQ ID NO 29 (VHH)
VHH: QVQLQESGGGSVRTGGSLRLSCAASPSIYSNNYMAWFSQAPGKGREGVAAVYIDDGRPYYADSVKGRFTISLDSAKNTVYLQMNSLKPEDTAMYYCAAAPGPLSRNYWYTSANYDYWGQGTQVTVSS
notes: pMECS-expressed; also called VHH numbered 29
B15: SEQ ID NO 24 (VHH)
VHH: QVQLQESGGGSVQTGGSLRLSCTASTSIYSNNYMAWFSQSPGKGREGVAAVYMDDGRPYYADSVKGRFTISLDSAKNTMYLQMNSLKPEDTAMYYCAAAPGPLSRNYWYTSANYDYWGQGTQVTVSS
notes: pMECS-expressed; also called VHH numbered 24
B16: SEQ ID NO 15 (VHH)
VHH: QVQLQESGGGSVQTGGSLRLSCAASTSIYSNNYMAWFSQAPGKGREGVAAVYIDDGRTYYADSVKGRFTISLDSAKNTVYLQMNSLKPEDTAMYYCAAAPGPLSYNYWYTSANYDYWGQGTQVTVSS
notes: pMECS-expressed; also called VHH numbered 15
B17: SEQ ID NO 23 (VHH)
VHH: QVQLQESGGGSVQTGGSLRLSCAASTSLYSYNYMAWFSQAPGKGREGVAAVYVGDGRPYYADSVKGRFTISLDSAKNTVYLQMNSLKPEDTAMYYCAAAPGPLSHNYWYTSANYDYWGQGTQVTVSS
notes: pMECS-expressed; also called VHH numbered 23
B18: SEQ ID NO 36 (VHH)
VHH: QVQLQESGGGSVQTGGSLRLSCAASTSLYSYNYMAWFSQAPGKGREGVAAVYVGDGRPYYAASVKGRFTISLDSAKNTVYLQMNSLKPEDTAMYYCAAAPGPLSHNYWYTSANYDYWGQGTQVTVSS
notes: pMECS-expressed; also called VHH numbered 36
B19: SEQ ID NO 41 (VHH)
VHH: QVQLQESGGGSVQTGGSLRLSCAASTSIYSNNYMAWFRQAPGKGREGVAAVYIGDGRPYYADSAKGRFTISLDSAKNTVYLQMNSLKPEDTAMYYCAAAPGPLSRHYWYTSANYDYWGPGTQVTVSS
notes: pMECS-expressed; also called VHH numbered 41
B20: SEQ ID NO 13 (VHH)
VHH: QVQLQESGGGSVQTGGSLRLSCAASTSIYSNNYMAWFSQNPGKGREGVAAVYIGDGRPYYADSVKGRFTISLDSAKNTVYLQMNSLKPEDTAMYYCAAAPGPLSRNYWYTSANYDYWGQGTQVTVSS
notes: pMECS-expressed; also called VHH numbered 13
B21: SEQ ID NO 14 (VHH)
VHH: QVQLQESGGGSVQTGGSLRLSCAASTSIYSNNYMAWFSQAPGKGREGVAAVYIDDGRPYYADSVKGRFTISLDSAKNTVYLQVNSLKPEDTAMYYCAAAPGPLSRNYWYTSANYDYWGQGTQVTVSS
notes: pMECS-expressed; also called VHH numbered 14
B22: SEQ ID NO 40 (VHH)
VHH: QVQLQESGGGSVQTGGSLRLSCAASTSIYSNNYMAWFSQAPGKGREGVAALYIGDGRPYYADSVKGRFTIALDSAKNTVYLQMNGLKPEDTAMYYCAAAPGPLKHNYWYTSANYDYWGQGTQVTVSS
notes: pMECS-expressed; also called VHH numbered 40
B23: SEQ ID NO 38 (VHH)
VHH: QVQLQESGGGSVQTGGSLRLSCAASTSIYSNNYMAWFSQAPGKGREGVAAVYIGDGRPYYADSAKGRFTISLDSAKNTVYLQMNSLKPEDTAMYYCAAAPGPLSRNYWYTSANYDYWGQGTQVTVSS
notes: pMECS-expressed; also called VHH numbered 38
B24: SEQ ID NO 17 (VHH)
VHH: QVQLQESGGGSVQTGGSLRLSCAASTSIYSLNYMAWFSQAPGKGREGVAAVYIDDGRPYYADHVKGRFTISLDTAKNTVYLQMNSLKPEDTAMYYCAAAPGPLSRNYWYTSANYDYWGQGTQVTVSS
notes: pMECS-expressed; also called VHH numbered 17
B25: SEQ ID NO 39 (VHH)
VHH: QVQLQESGGGSVQTGGSLRLSCAASTSIYSNNYMAWFSQAPGKGREGVAALYIGDGRPYYADSVKGRFTIALDSAKNTVYLQMNGLKPEDTAMYYCAAAPGPLKHNYWYTSANYDYWGQGTQVTVSS
notes: pMECS-expressed; also called VHH numbered 39
B26: SEQ ID NO 27 (VHH)
VHH: QVQLQESGGGSVQTGGSLRLSCTASTSIYSNNYMAWFSQSPGKGREGVAAVYMDDGRPYYADSVKGRFTISLDSAKNTMYLQMNSLKPEDTAMYYCAAAPGPLSRNYWYTSANYDYWGQGTQVTVSS
notes: pMECS-expressed; also called VHH numbered 27

These binders were tested against T1, human PD-L1 protein (coated antigen) (human, UniProt Q9NZQ7 19-238, limits assumed) (assay: PE-ELISA, crude extract on coated PD-L1).
T1 construct: Construct not described; also called PD-L1 antigen; antigenic protein PD-L1
Procedure: (1) From the cell culture dishes containing phage after 3-4 rounds of screening in Example 2, 1000 individual colonies were selected and inoculated into TB medium containing 100 μg/ml of ampicillin (1 liter of TB medium contains 2.3 g of potassium dihydrogen phosphate, 12.52 g of dipotassium hydrogen phosphate, 12 g of peptone, 24 g of yeast extract, 4 ml of glycerol), after growth to log phase, add a final concentration of […] of IPTG, culture at 28° C. overnight. (2) The crude antibody was obtained by the infiltration method, and the antibody was transferred to an antigen-coated ELISA plate and placed at room temperature for 1 hour. (3) Unbound antibody was washed away with PBST, and a mouse anti-HA tag antibody (anti-mouse anti-HA antibody, purchased from Beijing Kangwei Century Biotechnology Co., Ltd.) was added and placed at room temperature for 1 hour. (4) Unbound antibody was washed away with PBST, and anti-mouse alkaline phosphatase conjugate (goat anti-mouse alkaline phosphatase-labeled antibody, purchased from Amytech Co., Ltd.) was added and placed at room temperature for 1 hour. (5) Wash the unbound antibody with PBST, add alkaline phosphatase coloring solution, and read the absorbance at 405 nm on an ELISA apparatus. (6) When the OD value of the sample well is more than 3 times the OD value of the control well (Ratio+/−>3), it is judged as a positive clone hole. (7) The bacteria of the positive clone well were shaken in a LB liquid containing 100 μg per ml to extract a plasmid and perform sequencing.

T1 sequence (Q9NZQ7 19-238 limits assumed): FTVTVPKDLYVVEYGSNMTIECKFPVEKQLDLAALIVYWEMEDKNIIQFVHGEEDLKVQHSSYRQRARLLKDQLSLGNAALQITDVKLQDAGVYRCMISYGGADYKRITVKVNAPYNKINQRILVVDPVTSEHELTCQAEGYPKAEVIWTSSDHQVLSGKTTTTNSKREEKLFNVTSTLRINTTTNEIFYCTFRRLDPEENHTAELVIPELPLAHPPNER

OD ratio (experimental group (A405 nm)/control group (A405 nm)), > 20:
B1, B2, B3, B4, B5, B6, B7, B8, B9, B10, B11, B12, B13, B14, B15, B16, B17, B18, B19, B20, B21, B22, B23, B24, B25, B26
